Reference: IntAct's records for PubMed 29039417

B1: BBSome complex member BBS4 (Homo sapiens), Q96RK4 (parent)
chain: MAEERVATRTQFPVSTESQKPRQKKAPEFPILEKQNWLIHLHYIRKDYEACKAVIKEQLQETQGLCEYAIYVQALIFRLEGNIQESLELFQTCAVLSPQSADNLKQVARSLFLLGKHKAAIEVYNEAAKLNQKDWEISHNLGVCYIYLKQFNKAQDQLHNALNLNRHDLTYIMLGKIHLLEGDLDKAIEVYKKAVEFSPENTELLTTLGLLYLQLGIYQKAFEHLGNALTYDPTNYKAILAAGSMMQTHGDFDVALTKYRVVACAVPESPPLWNNIGMCFFGKKKYVAAISCLKRANYLAPFDWKILYNLGLVHLTMQQYASAFHFLSAAINFQPKMGELYMLLAVALTNLEDIENAKRAYAEAVHLDKCNPLVNLNYAVLLYNQGEKKNALAQYQEMEKKVSLLKDNSSLEFDSEMVEMAQKLGAALQVGEALVWTKPVKDPKSKHQTTSTSKPASFQQPLGSNQALGQAMSSAAAYRTLPSGAGGTSQFTKPPSLPLEPEPAVESSPTETSEQIREK
partner: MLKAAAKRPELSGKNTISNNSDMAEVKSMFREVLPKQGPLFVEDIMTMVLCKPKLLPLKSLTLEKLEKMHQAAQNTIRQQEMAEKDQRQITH

Variants of: B1
Conditions: with bbip1_human BBIP1, A8MTZ0

Variant | effect of a mutation on the interaction
D407E | with no effect
Y395K | with no effect
M317K | with no effect
M317E | with no effect
A357K | with no effect
A357V | disrupting interaction strength
K294E | with no effect
S496K | with no effect
P335K | with no effect
P335E | with no effect
S474E | with no effect
P501E | with no effect
T437K | with no effect
T437E | with no effect
T510A | with no effect
T510K | with no effect
S457K | with no effect
N274E | with no effect
L462A | with no effect
A467K | with no effect
K336E | with no effect
L312K | with no effect

Variant | effect of a mutation on the interaction
L312P | disrupting interaction strength
T512K | with no effect
N384A | with no effect
N384E | with no effect
F333A | with no effect
S445K | with no effect
G277A | with no effect
S415E | with no effect
I276K | with no effect
I276E | with no effect
N309D | disrupting interaction strength
N375E | with no effect
N375K | with no effect
F491K | with no effect
P503K | with no effect
P503E | with no effect
G311D | disrupting interaction strength
G431E | with no effect
G431K | with no effect
T450A | with no effect
N332Y | disrupting interaction strength
N332K | with no effect

Variant | effect of a mutation on the interaction
Y286A | with no effect
A330K | with no effect
L481K | with no effect
H366A | with no effect
K283E | with no effect
S410K | with no effect
V505E | with no effect
V505K | with no effect
H447K | with no effect
V287E | with no effect
K369E | with no effect
E363K | with no effect
E514A | with no effect
Q422A | with no effect
E352K | with no effect
F302A | with no effect
L434K | with no effect
A288K | with no effect
I331E | with no effect
I331F | disrupting interaction strength
N390E | with no effect
T488E | with no effect

Variant | effect of a mutation on the interaction
T488A | with no effect
D353G | disrupting interaction strength
D353K | with no effect
H325A | with no effect
Y308A | with no effect
Y308E | with no effect
L392P | disrupting interaction strength
R517A | with no effect
R517K | with no effect
R517E | with no effect
N377K | with no effect
N377C | disrupting interaction strength
K446A | with no effect
E399K | with no effect
G425E | with no effect
P271A | with no effect
P455A | with no effect
N408A | with no effect
R359K | with no effect
T449A | with no effect
T449K | with no effect
